Measured values taken from patent US9513287.

Molecular target: Shiga toxin 2f (Stx2f) holotoxin (Escherichia coli)

B1: monoclonal antibody Stx2f-1 (antibody, V domains shown)
VH: QVQLQQSGPEVVRPGVSVKISCKGSGYTFTDYAIHWVKQSHAKSLEWIGFISTYNGNPNYNKEFKGKATVTVDKSSSTAYLELARLTSEDSAIYFCARDFYGSSSWFAYWGQGTLVTVSA
VL: DIVLTQTPASLAVSLGQRATISCRASESVDSYGDDFMHWYQQKPGQPPKLLIYRVSNLESGIPVRFSGSGSRTDFTLTINPVEADDDATYYCQQSNENPYTFGGGTKLEIK
With B1 the Kd was 0.516 nM.
